From the supplement of paper PMC10126150
± gives the standard deviation of the averaged measurements.

Tested on: ATP
Assay: switch fluorescence ratio, 500 uM ATP over buffer (Cy3 cluster intensity, sum of 5 cycles each) (fold (ratio)); higher = stronger signal-on switching upon ATP binding; sequences stand for … in TCGTCGGCAGCGTCAGATGTGTATAAGAGACAGTTTTTTTTTTTTTTTTTTTTTTTTT…TC
Conditions: aptamer strand: ATP DNA aptamer (quencher-CACCTGGGGGAGTATTGCGGAGGAAGG + anchor), 100 nM annealed; ATP concentration: 500 uM
Summary of the method: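 The fluorescence ratio divides summed target-cycle Cy3 intensity by summed buffer-cycle Cy3 intensity for each cluster and is averaged per switch-domain sequence. Cy3-labelled switching-strand clusters on a modified Illumina MiSeq flow-cell were annealed to 100 nM quencher-labelled ATP aptamer, then imaged in selection buffer and again after 15 min with 500 uM ATP at 22 °C. Five such cycles were run, with NaOH stripping and re-annealing between them, and clusters outside 100-1000 RFU were excluded.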
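Note: ATP exposure 15 min at 22 °C before imaging.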

Sequence | switch fluorescence ratio
GCAATAATGC | 1.603 ± 0.014
GCAATGATGT | 1.06 ± 0.03
GCAATGGTAC | 2.21 ± 0.098
GCAATGTAGG | 1.04 ± 0.03
GCAATTGCTG | 0.9802 ± 0.0023
GCAATTTAGA | 1.02 ± 0.016
GCAATTTCAG | 1.05 ± 0.021
GCACACCAGT | 1.04 ± 0.014
GCACACCGAG | 1.083 ± 0.0059
GCACATGGCA | 1.02 ± 0.015
GCACATGGTG | 1.05 ± 0.021
GCACATTATG | 0.985 ± 0.011
GCACCAAGGA | 1.07 ± 0.036
GCACCTATAT | 1.04 ± 0.039
GCACGCAACT | 1.32 ± 0.013
GCACGCGGGG | 1.009 ± 0.0015
GCACGCTAGG | 1.07 ± 0.041
GCACGTTTTT | 1 ± 0.03
GCAGAAGGTA | 1.01 ± 0.029
GCAGAGGGC | 1 ± 0.012
GCAGAGGGGA | 0.981 ± 0.039
GCAGAGTCGT | 0.999 ± 0.037
GCAGCAGGGT | 1.101 ± 0.0034

Sequence | switch fluorescence ratio
GCAGCCGAGT | 1.013 ± 0.0098
GCAGGAATTC | 1.05 ± 0.042
GCAGGACGGG | 1.4 ± 0.64
GCAGGAGGGG | 0.965 ± 0.074
GCAGGGATAC | 3.4 ± 0.048
GCAGGGATGA | 0.994 ± 0.0052
GCAGGGGCTG | 1.02 ± 0.016
GCAGGGGGCG | 1.04 ± 0.051
GCAGGGGGGC | 1.03 ± 0.035
GCAGGGTAGC | 1.04 ± 0.012
GCAGGGTGGG | 1.02 ± 0.028
GCAGGTCAAT | 1.03 ± 0.018
GCAGGTCGCG | 1.01 ± 0.024
GCAGGTTGAC | 1.034 ± 0.003
GCAGGTTGAG | 1.01 ± 0.044
GCAGGTTGGC | 0.992 ± 0.029
GCAGTACTTT | 1.5 ± 0.12
GCAGTAGCAA | 1.08 ± 0.03
GCAGTATAGC | 0.99 ± 0.011
GCAGTATGGG | 1 ± 0.028
GCAGTATTCC | 1.66 ± 0.11
GCAGTCCCGT | 1.03 ± 0.015
GCAGTTAGTT | 1.01 ± 0.033

Sequence | switch fluorescence ratio
GCAGTTGGAA | 1.058 ± 0.0089
GCATAAGGGT | 1.01 ± 0.038
GCATATCCGG | 1.02 ± 0.011
GCATATGATC | 1.05 ± 0.021
GCATATTTTG | 0.994 ± 0.029
GCATCAATGG | 1.06 ± 0.014
GCATCATTCA | 1.03 ± 0.017
GCATCATTTA | 1.009 ± 0.0059
GCATCCTGGA | 0.969 ± 0.058
GCATGAACAT | 0.98 ± 0.026
GCATGAGAGG | 0.987 ± 0.021
GCATGAGGGT | 1.03 ± 0.072
GCATGCGGGA | 1.02 ± 0.074
GCATGGAAGA | 0.992 ± 0.015
GCATGGCTGG | 1.017 ± 0.00012
GCATGGGCTG | 1.04 ± 0.019
GCATGGGGCG | 1.037 ± 0.0041
GCATGGGGTG | 1.069 ± 0.0081
GCATGGGGTT | 0.998 ± 0.031
GCATGTGTAT | 1.01 ± 0.031
GCATTAAAGT | 0.958 ± 0.033
GCATTAAGAA | 1.01 ± 0.018
GCATTAAGGA | 1.058 ± 0.008

Sequence | switch fluorescence ratio
GCATTACTTG | 1.16 ± 0.027
GCATTAGGGA | 0.989 ± 0.024
GCATTCCGAA | 1.22 ± 0.028
GCATTGAGTG | 0.978 ± 0.03
GCATTGGCGG | 0.993 ± 0.044
GCATTGGGGG | 0.995 ± 0.041
GCATTTGAAA | 0.978 ± 0.011
GCATTTGCTG | 0.9719 ± 0.0044
GCATTTGGCC | 0.999 ± 0.012
GCATTTTCTG | 1.02 ± 0.026
GCCAAAACCT | 2 ± 0.76
GCCAAATTTT | 0.955 ± 0.035
GCCAACCACT | 1.03 ± 0.025
GCCAATACCA | 1.22 ± 0.013
GCCAATAGTT | 1.046 ± 0.0073
GCCAATGGTT | 1.08 ± 0.16
GCCAATGTGG | 1 ± 0.051
GCCACAGTCG | 1.01 ± 0.022
GCCACATTTT | 0.945 ± 0.01
GCCACCGTTT | 1.06 ± 0.021
GCCAGCAGCT | 0.967 ± 0.014
GCCAGCCGTT | 1.014 ± 0.0038
GCCAGGGCTG | 1 ± 0.024

Sequence | switch fluorescence ratio
GCCAGGGCTT | 1.03 ± 0.036
GCCAGTATGT | 1.08 ± 0.086
GCCATCACGC | 0.9836 ± 0.006
GCCATCATGC | 0.97 ± 0.0073
GCCATCGTCG | 1.01 ± 0.044
GCCATGCGTC | 1.01 ± 0.026
GCCATGGGCA | 1.002 ± 0.0053
GCCATGTTTT | 0.9646 ± 0.008
GCCATTAAGA | 1.01 ± 0.011
GCCATTCATC | 1.02 ± 0.017
GCCCAAGAGT | 1.04 ± 0.02
GCCCCACCTG | 1.05 ± 0.029
GCCCCAGGGG | 4.81 ± 0.36
GCCCGAGCAG | 1.22 ± 0.062
GCCCGCTTCG | 1.03 ± 0.024
GCCCGGAGCG | 1.68 ± 0.13
GCCCGTTTCG | 0.9989 ± 0.0082
GCCCTCCTGC | 1.16 ± 0.078
GCCCTCTCGA | 1.018 ± 0.0079
GCCCTGGGGA | 2.74 ± 2.4
GCCGAAAGGA | 1.04 ± 0.039
GCCGAAATGT | 1.06 ± 0.097
GCCGCAGACA | 1.39 ± 0.1

Sequence | switch fluorescence ratio
GCCGCAGGGG | 2.61 ± 1.3
GCCGCATTTG | 1.147 ± 0.011
GCCGCCTTTT | 1.023 ± 0.0016
GCCGCGGGAG | 1.096 ± 0.0063
GCCGCTTGCA | 0.9973 ± 0.0053
GCCGGAAAAC | 2.35 ± 0.2
GCCGGACTTT | 1.01 ± 0.012
GCCGGAGGGG | 1.26 ± 0.39
GCCGGCGCAC | 1.026 ± 0.0057
GCCGGCGTCG | 1.03 ± 0.035
GCCGGCTTCT | 1.02 ± 0.016
GCCGGGATAG | 1.23 ± 0.35
GCCGGGGTCG | 1.02 ± 0.037
GCCGGGGTGC | 1.06 ± 0.028
GCCGGGGTTG | 1 ± 0.021
GCCGGGTATG | 1.02 ± 0.022
GCCGTACCTG | 1.041 ± 0.00042
GCCGTACTCT | 1.1 ± 0.1
GCCGTAGACC | 0.9994 ± 0.0092
GCCGTAGGGC | 0.985 ± 0.011
GCCGTTCTTA | 1.05 ± 0.037
GCCTAATATG | 0.9793 ± 0.0083
GCCTACAGGT | 1.03 ± 0.019

Sequence | switch fluorescence ratio
GCCTATAACT | 1.016 ± 0.0077
GCCTATATTT | 0.994 ± 0.017
GCCTCCTTTT | 1.05 ± 0.019
GCCTCGTTGG | 0.98 ± 0.012
GCCTGATGCG | 0.997 ± 0.055
GCCTGCTGGA | 1.002 ± 0.0023
GCCTGGAAAT | 1 ± 0.021
GCCTGGAGTA | 1.03 ± 0.065
GCCTGGGACC | 0.996 ± 0.022
GCCTGGGGGG | 1.02 ± 0.042
GCCTGGTCAG | 0.979 ± 0.013
GCCTGTAAGT | 0.989 ± 0.032
GCCTGTACTT | 0.9883 ± 0.0046
GCCTGTTTGG | 1.014 ± 0.01
GCCTTACAGT | 0.985 ± 0.015
GCCTTACCTG | 1.05 ± 0.012
GCCTTACGTC | 1.05 ± 0.052
GCCTTGAGGA | 0.997 ± 0.018
GCCTTGATGT | 1.01 ± 0.032
